What was measured:
[1] = molecular target: dextramers composed of HLA-A*11:01 complexes loaded with the RAS-WT peptide (human); assay: dual dextramer labeling of TCR T3 transduced T cells, flow cytometry
[2] = molecular target: T1, RAS G12C peptide on HLA-A*11:01 (human); assay: cytokine release
T1 peptide: VVVGACGVGK

[3] = molecular target: T2, RAS G12D (KRAS, also HRAS and NRAS) peptide on HLA-A*11:01 (human); assay: cytokine release
T2 peptide: VVVGADGVGK

[4] = molecular target: T3, RAS G12D (KRAS, also HRAS and NRAS) peptide on HLA-A*11:01 (human); assay: cytokine release
T3 peptide: VVGADGVGK

[5] = molecular target: T4, RAS wild type (KRAS, also HRAS and NRAS) peptide on HLA-A*11:01 (human); assay: multimer staining
T4 peptide: VVVGAGGVGK

fraction of the T cells that bound the dextramers [1]: 60%
binding result [2]: recognises
binding result [3]: recognises
binding result [4]: recognises
binding result [5]: recognises
B1: TCR T3 (TCR, V domains shown)
Valpha: GQQLNQSPQSMFIQEGEDVSMNCTSSSIFNTWLWYKQDPGEGPVLLIALYKAGELTSNGRLTAQFGITRKDSFLNISASIPSDVGIYFCAGRREGAQKLVFGQGTRLTINP
Vbeta: GAGVSQSPRYKVAKRGQDVALRCDPISGHVSLFWYQQALGQGPEFLTYFQNEAQLDKSGLPSDRFFAERPEGSVSTLKIQRTQQEDSAVYLCASSSTLMGVNIQYFGAGTRLSVL

Reference: patent US20250222032A1 (published 2025)
